The labels stand for the following.
T1: human amylin receptor (human calcitonin receptor + human RAMP3) (human) (UniProt P30988)
T1 sequence (looked up) 1: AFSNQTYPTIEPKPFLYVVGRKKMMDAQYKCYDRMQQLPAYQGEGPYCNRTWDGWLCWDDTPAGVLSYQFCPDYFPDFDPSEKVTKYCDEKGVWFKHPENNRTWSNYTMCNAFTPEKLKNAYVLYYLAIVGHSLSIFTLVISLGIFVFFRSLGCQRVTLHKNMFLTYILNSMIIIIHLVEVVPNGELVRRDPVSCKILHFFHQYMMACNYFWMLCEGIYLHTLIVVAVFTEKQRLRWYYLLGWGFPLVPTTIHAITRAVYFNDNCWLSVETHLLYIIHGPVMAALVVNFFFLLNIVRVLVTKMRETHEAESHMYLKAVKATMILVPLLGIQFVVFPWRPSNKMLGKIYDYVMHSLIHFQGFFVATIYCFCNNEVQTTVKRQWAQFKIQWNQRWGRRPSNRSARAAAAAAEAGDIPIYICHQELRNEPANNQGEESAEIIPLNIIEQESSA
T1 sequence (looked up) 2: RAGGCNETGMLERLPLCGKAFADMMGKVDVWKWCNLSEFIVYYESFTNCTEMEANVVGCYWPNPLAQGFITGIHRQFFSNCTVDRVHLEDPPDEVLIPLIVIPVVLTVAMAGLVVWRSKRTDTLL

B1: [N-terminal(C18 diacid), 9V, 10I]mimylin (peptide)
peptide: {C18 diacid}-EASELSTAVIGRLSAELHELATLPRTETGPESP-NH2
SMILES: CC[C@H](C)[C@H](NC(=O)[C@@H](NC(=O)[C@H](C)NC(=O)[C@@H](NC(=O)[C@H](CO)NC(=O)[C@H](CC(C)C)NC(=O)[C@H](CCC(=O)O)NC(=O)[C@H](CO)NC(=O)[C@H](C)NC(=O)[C@H](CCC(=O)O)NC(=O)CCCCCCCCCCCCCCCCC(=O)O)[C@@H](C)O)C(C)C)C(=O)NCC(=O)N[C@@H](CCCNC(=N)N)C(=O)N[C@@H](CC(C)C)C(=O)N[C@@H](CO)C(=O)N[C@@H](C)C(=O)N[C@@H](CCC(=O)O)C(=O)N[C@@H](CC(C)C)C(=O)N[C@@H](Cc1c[nH]cn1)C(=O)N[C@@H](CCC(=O)O)C(=O)N[C@@H](CC(C)C)C(=O)N[C@@H](C)C(=O)N[C@H](C(=O)N[C@@H](CC(C)C)C(=O)N1CCC[C@H]1C(=O)N[C@@H](CCCNC(=N)N)C(=O)N[C@H](C(=O)N[C@@H](CCC(=O)O)C(=O)N[C@H](C(=O)NCC(=O)N1CCC[C@H]1C(=O)N[C@@H](CCC(=O)O)C(=O)N[C@@H](CO)C(=O)N1CCC[C@H]1C(N)=O)[C@@H](C)O)[C@@H](C)O)[C@@H](C)O
B2: [N-terminal(C18 diacid), 5I, 9I]mimylin (peptide)
peptide: {C18 diacid}-EASEISTAILGRLSAELHELATLPRTETGPESP-NH2
SMILES: CC[C@H](C)[C@H](NC(=O)[C@H](C)NC(=O)[C@@H](NC(=O)[C@H](CO)NC(=O)[C@@H](NC(=O)[C@H](CCC(=O)O)NC(=O)[C@H](CO)NC(=O)[C@H](C)NC(=O)[C@H](CCC(=O)O)NC(=O)CCCCCCCCCCCCCCCCC(=O)O)[C@@H](C)CC)[C@@H](C)O)C(=O)N[C@@H](CC(C)C)C(=O)NCC(=O)N[C@@H](CCCNC(=N)N)C(=O)N[C@@H](CC(C)C)C(=O)N[C@@H](CO)C(=O)N[C@@H](C)C(=O)N[C@@H](CCC(=O)O)C(=O)N[C@@H](CC(C)C)C(=O)N[C@@H](Cc1c[nH]cn1)C(=O)N[C@@H](CCC(=O)O)C(=O)N[C@@H](CC(C)C)C(=O)N[C@@H](C)C(=O)N[C@H](C(=O)N[C@@H](CC(C)C)C(=O)N1CCC[C@H]1C(=O)N[C@@H](CCCNC(=N)N)C(=O)N[C@H](C(=O)N[C@@H](CCC(=O)O)C(=O)N[C@H](C(=O)NCC(=O)N1CCC[C@H]1C(=O)N[C@@H](CCC(=O)O)C(=O)N[C@@H](CO)C(=O)N1CCC[C@H]1C(N)=O)[C@@H](C)O)[C@@H](C)O)[C@@H](C)O
B3: [N-terminal(C18 diacid), 5V, 9V]mimylin (peptide)
peptide: {C18 diacid}-EASEVSTAVLGRLSAELHELATLPRTETGPESP-NH2
SMILES: CC(C)C[C@H](NC(=O)[C@H](CCC(=O)O)NC(=O)[C@H](Cc1c[nH]cn1)NC(=O)[C@H](CC(C)C)NC(=O)[C@H](CCC(=O)O)NC(=O)[C@H](C)NC(=O)[C@H](CO)NC(=O)[C@H](CC(C)C)NC(=O)[C@H](CCCNC(=N)N)NC(=O)CNC(=O)[C@H](CC(C)C)NC(=O)[C@@H](NC(=O)[C@H](C)NC(=O)[C@@H](NC(=O)[C@H](CO)NC(=O)[C@@H](NC(=O)[C@H](CCC(=O)O)NC(=O)[C@H](CO)NC(=O)[C@H](C)NC(=O)[C@H](CCC(=O)O)NC(=O)CCCCCCCCCCCCCCCCC(=O)O)C(C)C)[C@@H](C)O)C(C)C)C(=O)N[C@@H](C)C(=O)N[C@H](C(=O)N[C@@H](CC(C)C)C(=O)N1CCC[C@H]1C(=O)N[C@@H](CCCNC(=N)N)C(=O)N[C@H](C(=O)N[C@@H](CCC(=O)O)C(=O)N[C@H](C(=O)NCC(=O)N1CCC[C@H]1C(=O)N[C@@H](CCC(=O)O)C(=O)N[C@@H](CO)C(=O)N1CCC[C@H]1C(N)=O)[C@@H](C)O)[C@@H](C)O)[C@@H](C)O
B4: [N-terminal(C18 diacid), 3P, 9V]mimylin (peptide)
peptide: {C18 diacid}-EAPELSTAVLGRLSAELHELATLPRTETGPESP-NH2
SMILES: CC(C)C[C@H](NC(=O)[C@H](CCC(=O)O)NC(=O)[C@H](Cc1c[nH]cn1)NC(=O)[C@H](CC(C)C)NC(=O)[C@H](CCC(=O)O)NC(=O)[C@H](C)NC(=O)[C@H](CO)NC(=O)[C@H](CC(C)C)NC(=O)[C@H](CCCNC(=N)N)NC(=O)CNC(=O)[C@H](CC(C)C)NC(=O)[C@@H](NC(=O)[C@H](C)NC(=O)[C@@H](NC(=O)[C@H](CO)NC(=O)[C@H](CC(C)C)NC(=O)[C@H](CCC(=O)O)NC(=O)[C@@H]1CCCN1C(=O)[C@H](C)NC(=O)[C@H](CCC(=O)O)NC(=O)CCCCCCCCCCCCCCCCC(=O)O)[C@@H](C)O)C(C)C)C(=O)N[C@@H](C)C(=O)N[C@H](C(=O)N[C@@H](CC(C)C)C(=O)N1CCC[C@H]1C(=O)N[C@@H](CCCNC(=N)N)C(=O)N[C@H](C(=O)N[C@@H](CCC(=O)O)C(=O)N[C@H](C(=O)NCC(=O)N1CCC[C@H]1C(=O)N[C@@H](CCC(=O)O)C(=O)N[C@@H](CO)C(=O)N1CCC[C@H]1C(N)=O)[C@@H](C)O)[C@@H](C)O)[C@@H](C)O
B5: [N-terminal(C18 diacid), 9L, 10A]mimylin (peptide)
peptide: {C18 diacid}-EASELSTALAGRLSAELHELATLPRTETGPESP-NH2
SMILES: CC(C)C[C@H](NC(=O)[C@H](C)NC(=O)[C@@H](NC(=O)[C@H](CO)NC(=O)[C@H](CC(C)C)NC(=O)[C@H](CCC(=O)O)NC(=O)[C@H](CO)NC(=O)[C@H](C)NC(=O)[C@H](CCC(=O)O)NC(=O)CCCCCCCCCCCCCCCCC(=O)O)[C@@H](C)O)C(=O)N[C@@H](C)C(=O)NCC(=O)N[C@@H](CCCNC(=N)N)C(=O)N[C@@H](CC(C)C)C(=O)N[C@@H](CO)C(=O)N[C@@H](C)C(=O)N[C@@H](CCC(=O)O)C(=O)N[C@@H](CC(C)C)C(=O)N[C@@H](Cc1c[nH]cn1)C(=O)N[C@@H](CCC(=O)O)C(=O)N[C@@H](CC(C)C)C(=O)N[C@@H](C)C(=O)N[C@H](C(=O)N[C@@H](CC(C)C)C(=O)N1CCC[C@H]1C(=O)N[C@@H](CCCNC(=N)N)C(=O)N[C@H](C(=O)N[C@@H](CCC(=O)O)C(=O)N[C@H](C(=O)NCC(=O)N1CCC[C@H]1C(=O)N[C@@H](CCC(=O)O)C(=O)N[C@@H](CO)C(=O)N1CCC[C@H]1C(N)=O)[C@@H](C)O)[C@@H](C)O)[C@@H](C)O
B6: [N-terminal(C18 diacid-gGlu), des1, 30S]mimylin (peptide)
peptide: {C18 diacid-γGlu}-ASELSTAALGRLSAELHELATLPRTETGSESP-NH2
SMILES: CC(C)C[C@H](NC(=O)[C@H](C)NC(=O)[C@H](C)NC(=O)[C@@H](NC(=O)[C@H](CO)NC(=O)[C@H](CC(C)C)NC(=O)[C@H](CCC(=O)O)NC(=O)[C@H](CO)NC(=O)[C@H](C)NC(=O)CC[C@H](NC(=O)CCCCCCCCCCCCCCCCC(=O)O)C(=O)O)[C@@H](C)O)C(=O)NCC(=O)N[C@@H](CCCNC(=N)N)C(=O)N[C@@H](CC(C)C)C(=O)N[C@@H](CO)C(=O)N[C@@H](C)C(=O)N[C@@H](CCC(=O)O)C(=O)N[C@@H](CC(C)C)C(=O)N[C@@H](Cc1c[nH]cn1)C(=O)N[C@@H](CCC(=O)O)C(=O)N[C@@H](CC(C)C)C(=O)N[C@@H](C)C(=O)N[C@H](C(=O)N[C@@H](CC(C)C)C(=O)N1CCC[C@H]1C(=O)N[C@@H](CCCNC(=N)N)C(=O)N[C@H](C(=O)N[C@@H](CCC(=O)O)C(=O)N[C@H](C(=O)NCC(=O)N[C@@H](CO)C(=O)N[C@@H](CCC(=O)O)C(=O)N[C@@H](CO)C(=O)N1CCC[C@H]1C(N)=O)[C@@H](C)O)[C@@H](C)O)[C@@H](C)O
B7: [N-terminal(C18 diacid), 2P, 9V]mimylin (peptide)
peptide: {C18 diacid}-EPSELSTAVLGRLSAELHELATLPRTETGPESP-NH2
SMILES: CC(C)C[C@H](NC(=O)[C@H](CCC(=O)O)NC(=O)[C@H](Cc1c[nH]cn1)NC(=O)[C@H](CC(C)C)NC(=O)[C@H](CCC(=O)O)NC(=O)[C@H](C)NC(=O)[C@H](CO)NC(=O)[C@H](CC(C)C)NC(=O)[C@H](CCCNC(=N)N)NC(=O)CNC(=O)[C@H](CC(C)C)NC(=O)[C@@H](NC(=O)[C@H](C)NC(=O)[C@@H](NC(=O)[C@H](CO)NC(=O)[C@H](CC(C)C)NC(=O)[C@H](CCC(=O)O)NC(=O)[C@H](CO)NC(=O)[C@@H]1CCCN1C(=O)[C@H](CCC(=O)O)NC(=O)CCCCCCCCCCCCCCCCC(=O)O)[C@@H](C)O)C(C)C)C(=O)N[C@@H](C)C(=O)N[C@H](C(=O)N[C@@H](CC(C)C)C(=O)N1CCC[C@H]1C(=O)N[C@@H](CCCNC(=N)N)C(=O)N[C@H](C(=O)N[C@@H](CCC(=O)O)C(=O)N[C@H](C(=O)NCC(=O)N1CCC[C@H]1C(=O)N[C@@H](CCC(=O)O)C(=O)N[C@@H](CO)C(=O)N1CCC[C@H]1C(N)=O)[C@@H](C)O)[C@@H](C)O)[C@@H](C)O

Here are results for 10 molecules from US20160272683A1 (Novo Nordisk, published 2016).

As usually defined, the IC50 is the concentration at which inhibition is half-maximal.

Numbered stars: 1 amine (or outer) side, 2 acyl side, 3 side chain; on linkers, the order of the positions; unused ones are H or OH. * marks the point of attachment. C20 diacid = O=C(O)CCCCCCCCCCCCCCCCCCC(=O)*; C18 diacid = O=C(O)CCCCCCCCCCCCCCCCC(=O)*; γGlu = O=C(O)[C@H](CCC(=O)[*:2])N[*:1]; C14 diacid = O=C(O)CCCCCCCCCCCCC(=O)*

For this assay, the target named is T1, human amylin receptor (human calcitonin receptor + human RAMP3) (human). The assay can be described thus: whole-cell competition vs 125I-rat amylin (Assay Va).
As to B1, the IC50 came to 0.891 nM.

As for {C20 diacid}-EASELSTAALGRLSAELHELATLPRTETGSGSP-NH2 [[N-terminal(C20 diacid), 30S, 31G]mimylin], the IC50 came to 0.24 nM. As for {C14 diacid-γGlu}-ASELSTAALGRLSAELHELATLPRTETGPESP-NH2 [[N-terminal(C14 diacid-gGlu), des1]mimylin], the IC50 came out at 1.14 nM. Then B2, with 0.4 nM; and {C18 diacid}-EASELSTAALGRLSAELHELATLPRTETGSGSP-NH2 [[N-terminal(C18 diacid), 30S, 31G]mimylin], with 0.187 nM.

On to B3, for which the IC50 was 0.824 nM. As to B4, the IC50 stood at 0.352 nM. Then B5, with 0.374 nM; and B6, with 0.83 nM; and B7, with 0.375 nM.
